Values belong to the binder of their own block, whether it stands above or below them.
Key:
[1] = target: T1, human GP130 delta D1 with C-terminal myc-myc hexahistidine tag (human, UniProt P40189 124-619); assay: Luminex, antigen captured on anti-myc beads
T1 construct: used as CHO supernatant; also called human GP130 delta D1-MMH; GP130 Delta D1 extracellular domain
Protocol: (§1) Aliquots of microspheres with immobilized anti-myc monoclonal antibodies, prepared as described above, were added individually to 1 mL of the each of these protein supernatants and to 500 uL of purified GP130 protein. The microspheres were gently mixed, incubated for two hours at 25° C., washed twice with 1 mL of DBPS, centrifuged to remove the supernatant and finally resuspended in 1 mL of DPBS buffer. Forty eight μL of anti-myc IgG coupled microspheres from individual reactions with full length human GP130 and with each of the human GP130 domain proteins were withdrawn and mixed together in 3.6 mL of PBS+20 mg/mL BSA+0.05% sodium azide (blocking buffer).
(§2) From this mixed pool, 75 μL of microspheres were plated per well on a 96 well filter plate (Millipore, Cat. No: MSBVN1250) and mixed with 25 μL of individual anti-human GP130 monoclonal antibodies (0.5 or 5 μg/mL), incubated for two hours at 25° C. and then washed twice with 200 μL of DPBS with 0.05% Tween 20 (washing buffer). To detect and quantify the amounts of bound anti-GP130 antibody levels to individual microspheres, either 100 μL of 2.5 μg/mL R-Phycoerythrin conjugated goat F(ab′)2 anti-human kappa (Southern Biotech, Cat #2063-09) in blocking buffer, was added and incubated for 30 minutes at 25° C. After 30 minutes, the samples were washed twice with 200 μL of washing buffer and resuspended in 150 μL of wash buffer. The Median Fluorescence intensity (MFI) of the microspheres was measured in a Luminex Analyzer.

[2] = target: T2, human GP130 delta D1-D3 with C-terminal myc-myc hexahistidine tag (human, UniProt P40189 329-619); assay: Luminex, antigen captured on anti-myc beads
T2 construct: used as CHO supernatant; also called human GP130 delta D1-D3-MMH; GP130 Delta D1-D3 extracellular domain
Protocol: as §1, §2

[3] = target: T3, human GP130 full length extracellular domain with C-terminal myc-myc-hexahistidine tag (human, UniProt P40189 23-619); assay: Luminex, antigen captured on anti-myc beads
T3 construct: Monomeric; also called human GP130-MMH; hGP130-mmH
Protocol: as §1, §2

[4] = target: T4, human gp130 extracellular domain (E23-E619) with C-terminal mouse IgG2a Fc (human); assay: blocking ELISA, 2.5 nM hGP130-mFc on plate-bound CNTFR/CNTF complex
T4 construct: dimeric; also called hGP130-mFc; human GP130-mFc
T4 chain: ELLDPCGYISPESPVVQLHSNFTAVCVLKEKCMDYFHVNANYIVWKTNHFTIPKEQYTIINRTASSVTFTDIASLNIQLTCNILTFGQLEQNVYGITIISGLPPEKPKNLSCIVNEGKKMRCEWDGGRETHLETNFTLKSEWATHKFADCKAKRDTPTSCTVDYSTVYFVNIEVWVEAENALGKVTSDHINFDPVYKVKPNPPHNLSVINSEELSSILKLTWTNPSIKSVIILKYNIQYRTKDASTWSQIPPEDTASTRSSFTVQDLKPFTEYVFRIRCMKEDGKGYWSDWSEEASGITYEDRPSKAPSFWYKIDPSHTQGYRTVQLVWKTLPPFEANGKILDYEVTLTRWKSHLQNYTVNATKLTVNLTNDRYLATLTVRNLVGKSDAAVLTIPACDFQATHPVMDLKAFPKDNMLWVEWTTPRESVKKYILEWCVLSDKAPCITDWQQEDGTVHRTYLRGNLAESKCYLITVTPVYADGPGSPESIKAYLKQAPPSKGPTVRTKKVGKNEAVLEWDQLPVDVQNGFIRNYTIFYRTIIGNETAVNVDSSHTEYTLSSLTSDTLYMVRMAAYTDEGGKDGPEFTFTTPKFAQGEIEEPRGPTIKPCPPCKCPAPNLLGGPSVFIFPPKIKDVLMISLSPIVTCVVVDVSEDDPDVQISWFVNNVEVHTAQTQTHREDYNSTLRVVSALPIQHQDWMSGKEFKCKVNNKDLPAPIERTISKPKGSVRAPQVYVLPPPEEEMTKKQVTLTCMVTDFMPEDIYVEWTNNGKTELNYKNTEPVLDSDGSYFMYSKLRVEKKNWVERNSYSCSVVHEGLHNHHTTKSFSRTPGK
Protocol: The experiment was carried out using the following procedure. Human CNTFRα was coated at a concentration of […] in HBSS on a 96-well microtiter plate overnight at 4° C. […] Human CNTF at a concentration of 1 μg/ml in HBSS was added to the plate bound CNTFRα for 1 hour at room temperature. In separate dilution plates, a constant amount of 2.5 nM of human GP130-mFc protein was titrated with antibodies ranging from 3.4 pM to 200 nM in serial dilution and with no antibody present. These solutions were incubated for 1 hour at room temperature (RT) and subsequently transferred to the microtiter plates with CNTFRα/CNTF complex without washing. The plates were incubated for 2 hours at RT, washed with PBST buffer, and plate-bound hGP130-mFc was detected with an anti-mFc polyclonal antibody conjugated with horseradish peroxidase (HRP) (Jackson ImmunoResearch Inc). Samples were developed with a TMB solution (BD Biosciences, substrate A and B mixed at 1:1 ratio as per manufacturer's instructions) to produce a colorimetric reaction and then neutralized with 1M sulfuric acid before measuring absorbance at 450 nm on a Victor X5 plate reader.
Data analysis was performed using a sigmoidal dose-response model within Prism™ software (GraphPad). […] Percent blockade at maximum concentration tested was calculated as an indicator of the ability of the antibodies to block binding of GP130 to CNTFRα/CNTF on the plate as determined from the dose curve. The ratio of the reduction in signal observed in the presence of the highest tested concentration of 200 nM antibody, relative to the difference between the signal with 2.5 nM GP130 with no antibody (0% blocking) and the background signal from HRP-conjugated secondary antibody alone (100% blocking), was subtracted from 100% blocking.

T1 sequence (P40189 other isoform, or with tags, fused parts or gaps mutant limits assumed): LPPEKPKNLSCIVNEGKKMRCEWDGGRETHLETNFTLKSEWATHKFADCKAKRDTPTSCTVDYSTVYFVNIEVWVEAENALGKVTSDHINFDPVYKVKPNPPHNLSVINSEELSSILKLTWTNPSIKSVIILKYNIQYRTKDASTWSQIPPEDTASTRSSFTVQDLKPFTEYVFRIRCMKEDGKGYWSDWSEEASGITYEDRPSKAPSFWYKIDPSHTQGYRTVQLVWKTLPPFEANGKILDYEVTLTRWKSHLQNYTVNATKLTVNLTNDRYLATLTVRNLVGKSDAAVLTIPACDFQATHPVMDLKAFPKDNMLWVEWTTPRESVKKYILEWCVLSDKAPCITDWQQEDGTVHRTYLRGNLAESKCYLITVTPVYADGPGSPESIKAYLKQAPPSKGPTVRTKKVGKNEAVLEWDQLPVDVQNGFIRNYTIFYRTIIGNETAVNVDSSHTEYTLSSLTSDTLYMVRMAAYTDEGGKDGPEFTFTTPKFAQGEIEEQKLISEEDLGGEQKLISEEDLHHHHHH
T2 sequence (P40189 other isoform, or with tags, fused parts or gaps mutant limits assumed): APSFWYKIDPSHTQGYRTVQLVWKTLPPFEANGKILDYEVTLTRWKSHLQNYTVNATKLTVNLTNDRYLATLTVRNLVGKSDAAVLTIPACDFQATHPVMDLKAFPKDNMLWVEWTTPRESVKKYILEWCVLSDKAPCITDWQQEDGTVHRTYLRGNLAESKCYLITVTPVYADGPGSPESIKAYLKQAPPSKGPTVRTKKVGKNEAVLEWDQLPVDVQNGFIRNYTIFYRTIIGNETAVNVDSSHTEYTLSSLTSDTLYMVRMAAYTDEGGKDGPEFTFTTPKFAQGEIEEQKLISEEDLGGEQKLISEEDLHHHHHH

B2: MAb16656 (antibody, V domains shown)
VH: EVQLVESGGGLVQPGRSLRLSCAASGFTLDDFAMHWVRQAPGKGLEWVSGISWNSGNIGYADSVKGRFTISRDNARNSLYLQMNSLRAEDTALYYCTSGYYLYYAMDVWGQGTTVTVSS
VL: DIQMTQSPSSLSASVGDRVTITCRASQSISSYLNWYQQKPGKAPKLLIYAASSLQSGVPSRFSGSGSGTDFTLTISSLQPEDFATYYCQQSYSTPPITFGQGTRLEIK
notes: hIgG4 isotype control used
Luminex MFI signal [1]: 48 MFI
Luminex MFI signal [2]: 17 MFI
Luminex MFI signal [3]: 15900 MFI
Max Blocking of Antibody at 200 nM (%) [4]: -24.7%

B3: MAb16637 (antibody, V domains shown)
VH: QVQLVQSGAEVKKPGASVKVSCKASGYTFTSLGISWVRQAPGQGLEWMGWISAYSGNRDYAQKFQGRVTMTTDTSTSTAYMELRSLRSDDTAVYYCARSLRFDYWGQGTLVTVSS
VL: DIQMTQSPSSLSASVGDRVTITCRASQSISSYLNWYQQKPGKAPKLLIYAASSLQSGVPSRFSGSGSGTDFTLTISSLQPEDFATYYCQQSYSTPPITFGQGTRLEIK
notes: hIgG4 isotype control used
Luminex MFI signal [1]: 342 MFI
Luminex MFI signal [2]: 861 MFI
Luminex MFI signal [3]: 16900 MFI
Max Blocking of Antibody at 200 nM (%) [4]: -38.9%

B4: MAb16636 (antibody, V domains shown)
VH: QLQLQESGPGLVKPSETLSLICTVSGGSISSNNYYWGWIRQPPGKGLEWIGNLYGSGSTYYNPSLKSRVTISVDTSKNQFSLKLSFVTAADTAVYHCARWDTNGGAFDIWGQGTMVTVSS
VL: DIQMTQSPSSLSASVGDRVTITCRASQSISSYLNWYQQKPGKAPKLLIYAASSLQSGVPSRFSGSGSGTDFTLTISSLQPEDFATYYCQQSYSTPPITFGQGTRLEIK
notes: hIgG4 isotype control used
Luminex MFI signal [1]: 4260 MFI
Luminex MFI signal [2]: 1070 MFI
Luminex MFI signal [3]: 17600 MFI
IC50 [4]: 1.1 nM
Max Blocking of Antibody at 200 nM (%) [4]: 94.8%

B5: MAb16665 (antibody, V domains shown)
VH: QVQLVESGGGVVQPGRSLRLACAASGFTFRSYGMHWVRQAPGKGLEWVAVIWYDGSNKYYTDSVKGRFTISRDNSKNTLYLQMNSLRAEDTAMYYCAIDKWATVTTYLFDYWGQGTLVTVSS
VL: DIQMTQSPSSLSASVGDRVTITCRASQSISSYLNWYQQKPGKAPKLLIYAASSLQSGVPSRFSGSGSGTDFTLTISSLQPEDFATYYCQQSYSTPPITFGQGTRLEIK
notes: hIgG4 isotype control used
Luminex MFI signal [1]: 119 MFI
Luminex MFI signal [2]: 116 MFI
Luminex MFI signal [3]: 16300 MFI
Max Blocking of Antibody at 200 nM (%) [4]: -47.1%

B8: MAb16623 (antibody, V domains shown)
VH: EVQLVESGGGLVQPGGSLRLSCAASGLTFSSYEMNWVRQAPGKGLEWVSHISSAGSTKYYADSVKGRFTISRDNAKNSLFLQMNSLRAEDTAIYYCAGYNYAYYYFGVDVWGQGTTVTVSS
VL: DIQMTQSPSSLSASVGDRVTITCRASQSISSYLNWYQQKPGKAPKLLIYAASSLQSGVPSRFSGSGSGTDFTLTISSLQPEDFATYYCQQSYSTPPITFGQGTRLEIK
notes: hIgG4 isotype control used
Luminex MFI signal [1]: 12600 MFI
Luminex MFI signal [2]: 16000 MFI
Luminex MFI signal [3]: 17600 MFI
Max Blocking of Antibody at 200 nM (%) [4]: -49.2%

B10: MAb16659 (antibody, V domains shown)
VH: QVQLVQSGPEVKKPGSSVKVSCKASGGTIDRNEITWVRQAPGQGLEWMGVIIPILGEAHYERKFQGRLTITMDESTSTAYMELSNLRSEDTAVYYCARERAARGYLDYWGQGTLVTVSS
VL: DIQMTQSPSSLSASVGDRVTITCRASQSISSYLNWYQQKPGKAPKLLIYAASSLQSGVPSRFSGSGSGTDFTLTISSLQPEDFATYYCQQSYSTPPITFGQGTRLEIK
notes: hIgG4 isotype control used
Luminex MFI signal [1]: 49 MFI
Luminex MFI signal [2]: 22 MFI
Luminex MFI signal [3]: 17100 MFI
Max Blocking of Antibody at 200 nM (%) [4]: -18.8%

B11: MAb16664 (antibody, V domains shown)
VH: QVQLVQSGTEVKKPGSSVKVSCKASGGTFSTYPINWVRQAPGQGLEWMGGIIPIFGTASYAQKFQGRVAITTDESTSTAYMELNSLRSEDTAVYYCARERPNWGSNDYWGQGTLVTVSS
VL: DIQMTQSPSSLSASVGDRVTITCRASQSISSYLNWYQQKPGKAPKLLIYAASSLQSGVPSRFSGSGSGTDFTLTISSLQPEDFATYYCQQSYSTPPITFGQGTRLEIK
notes: hIgG4 isotype control used
Luminex MFI signal [1]: 442 MFI
Luminex MFI signal [2]: 419 MFI
Luminex MFI signal [3]: 19300 MFI
Max Blocking of Antibody at 200 nM (%) [4]: -46.5%

B12: MAb16618 (antibody, V domains shown)
VH: QVQLQESGPGLVKPSETLSLTCTVSGGSISNYYWTWIRQPPGKGLEWIGHISNSGTTNYNPSLKSRVTISVDTSKNQFSLKLTSVTAADTAVYYCARLPLGIAAVDTDYYYYFGMDVWGQGTTVTVSS
VL: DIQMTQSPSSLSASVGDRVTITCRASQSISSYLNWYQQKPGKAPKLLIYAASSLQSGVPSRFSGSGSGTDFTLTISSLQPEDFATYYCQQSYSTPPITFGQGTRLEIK
notes: hIgG4 isotype control used
Luminex MFI signal [1]: 2630 MFI
Luminex MFI signal [2]: 19 MFI
Luminex MFI signal [3]: 19000 MFI
IC50 [4]: 2.37 nM
Max Blocking of Antibody at 200 nM (%) [4]: 86.7%

B13: MAb16622 (antibody, V domains shown)
VH: EVQLVESGGGVVRPGGSLRLSCTASGFTFDDYGMSWVRQAPGKGLEWVSGINWNGGRTEYADAVKGRFIISRDNAKNSLYLQMNSLRAEDTALYFCARTELRWDYWGQGTLVTVSS
VL: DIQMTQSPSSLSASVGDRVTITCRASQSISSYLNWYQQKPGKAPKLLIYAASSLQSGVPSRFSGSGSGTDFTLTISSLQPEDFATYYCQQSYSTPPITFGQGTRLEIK
notes: hIgG4 isotype control used
Luminex MFI signal [1]: 391 MFI
Luminex MFI signal [2]: 20 MFI
Luminex MFI signal [3]: 18500 MFI
Max Blocking of Antibody at 200 nM (%) [4]: -84.1%

B14: MAb16662 (antibody, V domains shown)
VH: EVQLVESGGGLVQPGGSLRLSCTASGFTFSNYAIFWVRQAPGKGLEYVSGISNNGVTKYYADSVRDRFTISRDNSRNTVSIQMDSLRTEDMAVYYCARENWGSDDGFDIWGQGTMVTVSS
VL: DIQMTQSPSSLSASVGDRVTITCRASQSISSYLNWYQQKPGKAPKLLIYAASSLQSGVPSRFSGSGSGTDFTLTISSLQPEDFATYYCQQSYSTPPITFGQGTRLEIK
notes: hIgG4 isotype control used
Luminex MFI signal [1]: 3050 MFI
Luminex MFI signal [2]: 16 MFI
Luminex MFI signal [3]: 13900 MFI
IC50 [4]: 6.51 nM
Max Blocking of Antibody at 200 nM (%) [4]: 81.9%

Second part, the binder after the results:

Luminex MFI signal [1]: 2340 MFI
Luminex MFI signal [2]: 33 MFI
Luminex MFI signal [3]: 15100 MFI
IC50 [4]: 2.37 nM
Max Blocking of Antibody at 200 nM (%) [4]: 104%
B1: MAb16673 (antibody, V domains shown)
VH: EVQLVQSGAEVKKPGESLKISCKGSGYSFTSYWIDWVRQMPGKGLEWMGIIYPDDSDTRYSPSFQGQVTMSVDKSISTAYLQWSSLKASDTAIYYCARHERGIVEAGTDYYYYYGMDVWGQGTTVTVSS
VL: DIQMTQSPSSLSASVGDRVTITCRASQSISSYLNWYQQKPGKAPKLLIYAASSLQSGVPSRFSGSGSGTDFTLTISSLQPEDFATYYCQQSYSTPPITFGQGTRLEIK
notes: hIgG4 isotype control used

Luminex MFI signal [1]: 1380 MFI
Luminex MFI signal [2]: 13 MFI
Luminex MFI signal [3]: 13800 MFI
Max Blocking of Antibody at 200 nM (%) [4]: -3.39%
B6: MAb16682 (antibody, V domains shown)
VH: EVQLVESGGGLVQPGGSLRLSCAASGFTFSTYWMNWVRQAPGKGLEWVANIKEDGSEKYYVDSVKGRFTISRDNAKNSLYLQMNSLRAEDTAVYYCAREGFGVVTYIWGQGTMVTVSS
VL: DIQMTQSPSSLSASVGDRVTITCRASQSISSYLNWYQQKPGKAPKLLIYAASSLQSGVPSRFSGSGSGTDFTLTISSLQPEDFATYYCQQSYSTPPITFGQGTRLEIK
notes: hIgG4 isotype control used

Luminex MFI signal [1]: 7280 MFI
Luminex MFI signal [2]: 319 MFI
Luminex MFI signal [3]: 16700 MFI
Max Blocking of Antibody at 200 nM (%) [4]: 103%
B7: MAb16666 (antibody, V domains shown)
VH: EVQLVESGGGLVQSGGSLRLSCAASGFTFSRYEMNWVRQAPGKGLEWVAYISNTGTTRDYSDSVKGRFTISRDNAKNSLYLQMSSLRVEDTAVYYCVREKFSGTSDWFDPWGQGTLVTVSS
VL: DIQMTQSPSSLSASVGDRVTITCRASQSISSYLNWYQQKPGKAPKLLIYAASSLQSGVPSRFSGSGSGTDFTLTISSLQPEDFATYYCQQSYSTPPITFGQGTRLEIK
notes: hIgG4 isotype control used

Luminex MFI signal [1]: 12600 MFI
Luminex MFI signal [2]: 15100 MFI
Luminex MFI signal [3]: 17600 MFI
IC50 [4]: 12.3 nM
Max Blocking of Antibody at 200 nM (%) [4]: 47.1%
B9: MAb16669 (antibody, V domains shown)
VH: EVQLVESGGGLVQPGGSLRLSCAASGFTFSSYAMNWVRQAPGKGLEWVSAISGSGDSTYYTDSVKGRFTISRDNSKNTLYLQMNTLRAEDTAVYYCAKEEIVMLVGATPGWFDPWGQGTLVTVSS
VL: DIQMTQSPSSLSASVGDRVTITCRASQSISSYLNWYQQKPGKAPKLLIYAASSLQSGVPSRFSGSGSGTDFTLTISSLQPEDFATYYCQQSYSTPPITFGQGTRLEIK
notes: hIgG4 isotype control used

Luminex MFI signal [1]: 364 MFI
Luminex MFI signal [2]: 686 MFI
Luminex MFI signal [3]: 18100 MFI
Max Blocking of Antibody at 200 nM (%) [4]: -15.4%
B15: MAb16676 (antibody, V domains shown)
VH: QVQLVQSGAEVMKPGASVKVSCRASGYTFSSYDINWVRQAPGQGLEWMGWISTATGNTNYPQKVQGRVTMTTDTSTNTAYMELRSLRSDDTAVYYCTREGNSKGWLDPWGQGTLVTVSS
VL: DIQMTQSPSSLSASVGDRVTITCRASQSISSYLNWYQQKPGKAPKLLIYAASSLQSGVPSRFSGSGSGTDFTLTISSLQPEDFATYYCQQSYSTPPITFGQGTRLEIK
notes: hIgG4 isotype control used

— US20240158497A1 (published 2024)
